Results published in article PMC4086937, “Two Modes of Regulation of the Fatty Acid Elongase ELOVL6 by the 3-Ketoacyl-CoA Reductase KAR in the Fatty Acid Elongation Cycle” (PLoS ONE, 2014).

Columns and labels:
[1] = molecular target: T1, KAR (Homo sapiens, UniProt Q53GQ0); experiment: coupled elongation with ELOVL6, […]malonyl-CoA, TLC; type: biochemical; settings: 1 mM NADPH; co-reconstituted ELOVL6; 8 µM C16:0-CoA; 27.3 µM [14C]malonyl-CoA; pH 6.8; 37 °C; 90 min
T1 construct: gene HSD17B12; N-terminal 3xFLAG, kept; HEK 293T expressed; anti-FLAG purified, co-reconstituted with ELOVL6 in POPC proteoliposomes; 36 kDa and faint N-glycosylated 39 kDa
T1 sequence (Q53GQ0 1-312): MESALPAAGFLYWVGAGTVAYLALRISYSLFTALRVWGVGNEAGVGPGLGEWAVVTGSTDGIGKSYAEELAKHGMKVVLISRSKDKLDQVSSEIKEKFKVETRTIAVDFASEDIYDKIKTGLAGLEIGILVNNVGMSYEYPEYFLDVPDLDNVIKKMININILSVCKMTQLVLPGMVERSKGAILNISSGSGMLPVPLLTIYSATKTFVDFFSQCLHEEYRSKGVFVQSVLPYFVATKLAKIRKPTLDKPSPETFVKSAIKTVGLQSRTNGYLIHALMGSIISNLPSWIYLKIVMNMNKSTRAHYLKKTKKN
T1 sequence (Q9H5J4 1-265 partner): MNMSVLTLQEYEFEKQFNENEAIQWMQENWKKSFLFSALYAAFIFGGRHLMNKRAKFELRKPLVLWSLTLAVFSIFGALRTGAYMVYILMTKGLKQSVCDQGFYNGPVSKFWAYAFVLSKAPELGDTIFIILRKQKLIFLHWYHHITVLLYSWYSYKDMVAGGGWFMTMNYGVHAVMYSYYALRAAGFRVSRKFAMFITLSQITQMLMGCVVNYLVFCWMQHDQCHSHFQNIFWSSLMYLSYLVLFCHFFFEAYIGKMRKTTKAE

[2] = molecular target: T2, 3xFLAG-ELOVL6 (fatty acid elongase ELOVL6) (human) (UniProt Q9H5J4)
T2 sequence: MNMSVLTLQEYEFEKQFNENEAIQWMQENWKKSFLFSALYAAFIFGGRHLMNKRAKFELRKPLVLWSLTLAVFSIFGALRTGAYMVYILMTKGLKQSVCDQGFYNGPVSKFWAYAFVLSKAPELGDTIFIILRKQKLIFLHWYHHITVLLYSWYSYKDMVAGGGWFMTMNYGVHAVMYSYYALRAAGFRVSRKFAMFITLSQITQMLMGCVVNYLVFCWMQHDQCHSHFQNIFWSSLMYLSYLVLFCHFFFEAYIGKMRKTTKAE

[3] = molecular target: T2, 3xFLAG-ELOVL6 (fatty acid elongase ELOVL6) (human); remark: listed apart in the source
[4] = substrate: CC(C)(COP(=O)(O)OP(=O)(O)OC[C@H]1O[C@@H](n2cnc3c(N)ncnc32)[C@H](O)[C@@H]1OP(=O)(O)O)[C@@H](O)C(=O)NCCC(=O)NCCSC(=O)CC(=O)O; experiment: purified protein; type: biochemical, Homo sapiens; settings: 8 µM C16:0-CoA, proteoliposomes, pH 6.8, 37 °C, 90 min, ELOVL6 alone, labelled compound
[5] = substrate: CCCCCCCCCCCCCCCC(=O)SCCNC(=O)CCNC(=O)[C@H](O)C(C)(C)COP(=O)(O)OP(=O)(O)OC[C@H]1O[C@@H](n2cnc3c(N)ncnc32)[C@H](O)[C@@H]1OP(=O)(O)O; experiment: purified protein; type: biochemical, Homo sapiens; settings: 27.3 µM [14C]malonyl-CoA, proteoliposomes, pH 6.8, 37 °C, 90 min, ELOVL6 alone

NC(=O)C1=CN([C@@H]2O[C@H](COP(=O)(O)OP(=O)(O)OC[C@H]3O[C@@H](n4cnc5c(N)ncnc54)[C@H](OP(=O)(O)O)[C@@H]3O)[C@@H](O)[C@H]2O)C=CC1 [NADPH]
coupled elongation with ELOVL6, [14C]malonyl-CoA, TLC [1]: caused production of 3-hydroxyacyl-CoA with a large increase in product levels

B1: 3xFLAG-KAR (3-ketoacyl-CoA reductase KAR), wild type (enzyme)
chain: MESALPAAGFLYWVGAGTVAYLALRISYSLFTALRVWGVGNEAGVGPGLGEWAVVTGSTDGIGKSYAEELAKHGMKVVLISRSKDKLDQVSSEIKEKFKVETRTIAVDFASEDIYDKIKTGLAGLEIGILVNNVGMSYEYPEYFLDVPDLDNVIKKMININILSVCKMTQLVLPGMVERSKGAILNISSGSGMLPVPLLTIYSATKTFVDFFSQCLHEEYRSKGVFVQSVLPYFVATKLAKIRKPTLDKPSPETFVKSAIKTVGLQSRTNGYLIHALMGSIISNLPSWIYLKIVMNMNKSTRAHYLKKTKKN
in vitro FA elongation assay, purified ELOVL6 and KAR co-reconstituted into proteoliposomes, without NADPH: 3-ketoacyl-CoA levels compared to ELOVL6 alone [2]: 3 fold
in vitro FA elongation assay, purified ELOVL6 and wild type KAR in the same proteoliposomes, with 1 mM NADPH: product levels compared to ELOVL6 alone [2]: 8 fold

B2: 3xFLAG-KAR S189A (enzyme)
chain: MESALPAAGFLYWVGAGTVAYLALRISYSLFTALRVWGVGNEAGVGPGLGEWAVVTGSTDGIGKSYAEELAKHGMKVVLISRSKDKLDQVSSEIKEKFKVETRTIAVDFASEDIYDKIKTGLAGLEIGILVNNVGMSYEYPEYFLDVPDLDNVIKKMININILSVCKMTQLVLPGMVERSKGAILNISAGSGMLPVPLLTIYSATKTFVDFFSQCLHEEYRSKGVFVQSVLPYFVATKLAKIRKPTLDKPSPETFVKSAIKTVGLQSRTNGYLIHALMGSIISNLPSWIYLKIVMNMNKSTRAHYLKKTKKN
in vitro FA elongation assay, purified ELOVL6 and KAR S189A co-reconstituted into proteoliposomes, with and without 1 mM NADPH: ELOVL6 activity compared to ELOVL6 alone [3]: 3 fold

B3: ELOVL6 (Homo sapiens) (protein)
chain: MNMSVLTLQEYEFEKQFNENEAIQWMQENWKKSFLFSALYAAFIFGGRHLMNKRAKFELRKPLVLWSLTLAVFSIFGALRTGAYMVYILMTKGLKQSVCDQGFYNGPVSKFWAYAFVLSKAPELGDTIFIILRKQKLIFLHWYHHITVLLYSWYSYKDMVAGGGWFMTMNYGVHAVMYSYYALRAAGFRVSRKFAMFITLSQITQMLMGCVVNYLVFCWMQHDQCHSHFQNIFWSSLMYLSYLVLFCHFFFEAYIGKMRKTTKAE
notes: N-terminal 3xFLAG, kept; HEK 293T expressed; Triton X-100 solubilized, anti-FLAG purified, reconstituted in POPC proteoliposomes; 29 kDa and N-glycosylated 32 kDa
Km [4]: 6.46 µM
Km [5]: 1.22 µM
